Results from IntAct's records for PubMed 31515488.

B1: Proto-oncogene serine/threonine-protein kinase mos (Homo sapiens), P00540 (parent)
chain: MPSPLALRPYLRSEFSPSVDARPCSSPSELPAKLLLGATLPRAPRLPRRLAWCSIDWEQVCLLQRLGAGGFGSVYKATYRGVPVAIKQVNKCTKNRLASRRSFWAELNVARLRHDNIVRVVAASTRTPAGSNSLGTIIMEFGGNVTLHQVIYGAAGHPEGDAGEPHCRTGGQLSLGKCLKYSLDVVNGLLFLHSQSIVHLDLKPANILISEQDVCKISDFGCSEKLEDLLCFQTPSYPLGGTYTHRAPELLKGEGVTPKADIYSFAITLWQMTTKQAPYSGERQHILYAVVAYDLRPSLSAAVFEDSLPGQRLGDVIQRCWRPSAAQRPSARLLLVDLTSLKAELG
partner: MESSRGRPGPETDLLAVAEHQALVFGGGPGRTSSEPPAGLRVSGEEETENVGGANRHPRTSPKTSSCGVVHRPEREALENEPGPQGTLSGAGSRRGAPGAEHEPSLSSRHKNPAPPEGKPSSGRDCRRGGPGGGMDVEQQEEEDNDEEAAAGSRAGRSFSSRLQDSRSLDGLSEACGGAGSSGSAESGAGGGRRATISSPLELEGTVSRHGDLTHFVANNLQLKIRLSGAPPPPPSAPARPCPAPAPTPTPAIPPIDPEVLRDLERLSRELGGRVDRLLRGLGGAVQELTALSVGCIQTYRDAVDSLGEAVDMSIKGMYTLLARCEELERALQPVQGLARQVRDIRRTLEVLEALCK
B2: Dynein axonemal light chain 4 (Homo sapiens), O96015 (parent)
chain: MGETEGKKDEADYKRLQTFPLVRHSDMPEEMRVETMELCVTACEKFSNNNESAAKMIKETMDKKFGSSWHVVIGEGFGFEITHEVKNLLYLYFGGTLAVCVWKCS
B3: E3 ubiquitin-protein ligase SH3RF2 (Homo sapiens), Q8TEC5 (parent)
chain: MDDLTLLDLLECPVCFEKLDVTAKVLPCQHTFCKPCLQRVFKAHKELRCPECRTPVFSNIEALPANLLLVRLLDGVRSGQSSGRGGSFRRPGTMTLQDGRKSRTNPRRLQASPFRLVPNVRIHMDGVPRAKALCNYRGQNPGDLRFNKGDIILLRRQLDENWYQGEINGISGNFPASSVEVIKQLPQPPPLCRALYNFDLRGKDKSENQDCLTFLKDDIITVISRVDENWAEGKLGDKVGIFPILFVEPNLTARHLLEKNKGRQSSRTKNLSLVSSSSRGNTSTLRRGPGSRRKVPGQFSITTALNTLNRMVHSPSGRHMVEISTPVLISSSNPSVITQPMEKADVPSSCVGQVSTYHPAPVSPGHSTAVVSLPGSQQHLSANMFVALHSYSAHGPDELDLQKGEGVRVLGKCQDGWLRGVSLVTGRVGIFPNNYVIPIFRKTSSFPDSRSPGLYTTWTLSTSSVSSQGSISEGDPRQSRPFKSVFVPTAIVNPVRSTAGPGTLGQGSLRKGRSSMRKNGSLQRPLQSGIPTLVVGSLRRSPTMVLRPQQFQFYQPQGIPSSPSAVVVEMGSKPALTGEPALTCISRGSEAWIHSAASSLIMEDKEIPIKSEPLPKPPASAPPSILVKPENSRNGIEKQVKTVRFQNYSPPPTKHYTSHPTSGKPEQPATLKASQPEAASLGPEMTVLFAHRSGCHSGQQTDLRRKSALGKATTLVSTASGTQTVFPSK
partner: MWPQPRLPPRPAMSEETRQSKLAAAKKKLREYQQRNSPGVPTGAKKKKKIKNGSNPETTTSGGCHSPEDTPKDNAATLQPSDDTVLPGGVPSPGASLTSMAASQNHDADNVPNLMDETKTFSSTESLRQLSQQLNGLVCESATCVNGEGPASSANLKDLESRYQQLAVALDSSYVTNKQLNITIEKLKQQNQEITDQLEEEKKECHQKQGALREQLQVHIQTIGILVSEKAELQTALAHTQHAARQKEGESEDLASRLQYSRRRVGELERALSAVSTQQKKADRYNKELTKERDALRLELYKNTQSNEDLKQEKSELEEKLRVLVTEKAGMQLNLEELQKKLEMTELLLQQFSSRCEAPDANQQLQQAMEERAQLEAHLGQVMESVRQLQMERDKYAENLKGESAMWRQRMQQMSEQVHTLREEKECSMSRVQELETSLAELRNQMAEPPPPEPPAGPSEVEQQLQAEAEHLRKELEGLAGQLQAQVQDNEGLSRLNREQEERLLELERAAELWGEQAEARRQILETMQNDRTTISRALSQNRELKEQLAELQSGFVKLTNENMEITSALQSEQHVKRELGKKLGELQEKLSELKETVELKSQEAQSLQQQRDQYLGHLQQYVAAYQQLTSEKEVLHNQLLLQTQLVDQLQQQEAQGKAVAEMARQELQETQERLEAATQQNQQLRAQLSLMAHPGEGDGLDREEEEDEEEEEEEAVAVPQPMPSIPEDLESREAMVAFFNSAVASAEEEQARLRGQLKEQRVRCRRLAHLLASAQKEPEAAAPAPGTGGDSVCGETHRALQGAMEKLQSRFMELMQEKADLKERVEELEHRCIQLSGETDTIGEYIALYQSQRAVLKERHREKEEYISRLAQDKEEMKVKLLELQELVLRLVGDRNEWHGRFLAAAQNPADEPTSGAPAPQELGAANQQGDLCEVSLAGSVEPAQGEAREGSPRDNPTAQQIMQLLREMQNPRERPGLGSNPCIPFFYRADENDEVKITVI
B4: Protein LDOC1 (Homo sapiens), O95751 (parent)
chain: MVDELVLLLHALLMRHRALSIENSQLMEQLRLLVCERASLLRQVRPPSCPVPFPETFNGESSRLPEFIVQTASYMLVNENRFCNDAMKVAFLISLLTGEAEEWVVPYIEMDSPILGDYRAFLDEMKQCFGWDDDEDDDDEEEEDDY
partner: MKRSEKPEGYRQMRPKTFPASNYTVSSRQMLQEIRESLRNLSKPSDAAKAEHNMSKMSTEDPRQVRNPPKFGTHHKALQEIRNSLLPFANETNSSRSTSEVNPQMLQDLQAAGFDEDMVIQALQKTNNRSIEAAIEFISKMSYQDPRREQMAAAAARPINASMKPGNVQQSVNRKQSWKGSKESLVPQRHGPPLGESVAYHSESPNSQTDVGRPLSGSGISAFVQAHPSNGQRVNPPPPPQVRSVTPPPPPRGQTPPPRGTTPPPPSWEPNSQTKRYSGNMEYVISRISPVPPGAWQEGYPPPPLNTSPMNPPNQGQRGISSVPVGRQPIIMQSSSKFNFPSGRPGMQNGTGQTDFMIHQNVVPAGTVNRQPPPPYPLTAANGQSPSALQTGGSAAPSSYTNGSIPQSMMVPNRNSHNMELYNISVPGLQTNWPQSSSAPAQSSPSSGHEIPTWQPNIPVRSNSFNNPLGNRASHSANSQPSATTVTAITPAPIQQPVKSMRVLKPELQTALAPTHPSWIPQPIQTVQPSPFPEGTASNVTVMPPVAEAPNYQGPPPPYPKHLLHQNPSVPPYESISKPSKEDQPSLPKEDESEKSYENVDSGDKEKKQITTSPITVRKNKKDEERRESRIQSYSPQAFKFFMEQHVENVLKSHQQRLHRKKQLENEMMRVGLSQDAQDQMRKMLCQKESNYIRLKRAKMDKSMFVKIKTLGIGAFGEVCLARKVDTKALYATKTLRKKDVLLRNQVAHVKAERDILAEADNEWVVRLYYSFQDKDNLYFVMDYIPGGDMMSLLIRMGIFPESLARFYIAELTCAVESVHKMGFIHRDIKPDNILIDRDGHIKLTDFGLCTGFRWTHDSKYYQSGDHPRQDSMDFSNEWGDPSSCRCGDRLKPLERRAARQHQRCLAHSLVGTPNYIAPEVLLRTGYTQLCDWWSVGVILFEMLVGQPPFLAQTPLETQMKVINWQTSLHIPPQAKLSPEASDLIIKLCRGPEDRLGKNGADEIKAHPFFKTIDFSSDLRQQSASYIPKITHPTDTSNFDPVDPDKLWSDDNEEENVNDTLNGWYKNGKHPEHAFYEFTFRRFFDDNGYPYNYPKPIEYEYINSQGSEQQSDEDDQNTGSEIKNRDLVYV
B5: Inactive peptidyl-prolyl cis-trans isomerase FKBP6 (Homo sapiens), O75344 (parent)
chain: MGGSALNQGVLEGDDAPGQSLYERLSQRMLDISGDRGVLKDVIREGAGDLVAPDASVLVKYSGYLEHMDRPFDSNYFRKTPRLMKLGEDITLWGMELGLLSMRRGELARFLFKPNYAYGTLGCPPLIPPNTTVLFEIELLDFLDCAESDKFCALSAEQQDQFPLQKVLKVAATEREFGNYLFRQNRFYDAKVRYKRALLLLRRRSAPPEEQHLVEAAKLPVLLNLSFTYLKLDRPTIALCYGEQALIIDQKNAKALFRCGQACLLLTEYQKARDFLVRAQKEQPFNHDINNELKKLASCYRDYVDKEKEMWHRMFAPCGDGSTAGES
partner: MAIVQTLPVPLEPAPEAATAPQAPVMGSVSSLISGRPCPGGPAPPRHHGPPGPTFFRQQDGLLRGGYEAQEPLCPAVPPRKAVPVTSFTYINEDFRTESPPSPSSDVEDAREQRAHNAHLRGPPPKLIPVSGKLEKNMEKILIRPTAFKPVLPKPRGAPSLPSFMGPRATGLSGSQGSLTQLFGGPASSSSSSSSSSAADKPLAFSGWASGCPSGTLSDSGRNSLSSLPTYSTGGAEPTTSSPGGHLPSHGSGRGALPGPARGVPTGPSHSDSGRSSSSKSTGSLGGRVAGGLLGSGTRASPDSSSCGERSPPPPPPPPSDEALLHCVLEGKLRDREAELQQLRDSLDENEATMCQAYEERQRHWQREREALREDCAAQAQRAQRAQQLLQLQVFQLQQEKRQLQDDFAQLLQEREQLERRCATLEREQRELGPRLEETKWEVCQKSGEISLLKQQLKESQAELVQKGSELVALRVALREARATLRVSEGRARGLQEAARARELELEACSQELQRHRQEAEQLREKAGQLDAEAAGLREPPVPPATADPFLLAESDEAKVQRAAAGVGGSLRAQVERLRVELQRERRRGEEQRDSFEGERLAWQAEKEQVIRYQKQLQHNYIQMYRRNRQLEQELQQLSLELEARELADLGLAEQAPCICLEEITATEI

Variants of: B1
Details: with borc6_human BORCS6, Q96GS4

Variant | effect of a mutation on the interaction
A105S | with no effect
A123T | disrupting interaction strength

Variants of: B2
Details: with dyl2_human DYNLL2, Q96FJ2
Chain of dyl2_human DYNLL2, Q96FJ2 (Q96FJ2 whole entry): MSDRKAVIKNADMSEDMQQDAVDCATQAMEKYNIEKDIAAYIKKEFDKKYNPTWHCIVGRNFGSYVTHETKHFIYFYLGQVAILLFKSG

Variant | effect of a mutation on the interaction
R32C | disrupting interaction strength

Variants of: B3
Details: with goga2_human GOLGA2, Q08379

Variant | effect of a mutation on the interaction
V687I | with no effect

Variants of: B4
Details: with lats1_human LATS1, O95835

Variant | effect of a mutation on the interaction
L12H | disrupting interaction strength

Variants of: B5
Details: with lzts2_human LZTS2, Q9BRK4

Variant | effect of a mutation on the interaction
R175Q | with no effect
